# Experimental data as given in the DeepSol protein solubility set.
# Experiment: soluble on expression in E. coli; label from the status in PepcDB or PDB records
row,Sequence,soluble on expression in E. coli
1,MRPTITALVLTYNGERLLDRCLGSLAFCDRILVVDSFSTDATVAIAQAAGAEVLQRKWEGPGPQFAFALEKISDGWIVSLDQDEICSEELRDSILAATAADSGEAGYWIPRRSWYFDRFLKHSGWYPDHLLRLFRAGRMRVEVSGAHYSFHPDGETGTLTGDILHYPYESFRQHLDKVNDYAQKGADDLRAKGKRGGLCAGLCHGAGRFIRIYIIKRGFLDGRAGFINAIHGAFYAFLKHLRIEEGDWGRPFEHKLEHHHHHH,soluble
2,MRPVFPLILSAVLFLSCFFGARQTEASASKRAIDANQIVNRMSLDEKLGQMLMPDFRNWQKEGESSPQALTKMNDEVASLVKKYQFGGIILFAENVKTTKQTVQLTDDYQKASPKIPLMLSIDQEGGIVTRLGEGTNFPGNMALGAARSRINAYQTGSIIGKELSALGINTDFSPVVDINNNPDNPVIGVRSFSSNRELTSRLGLYTMKGLQRQDIASALKHFPGHGDTDVDSHYGLPLVSHGQERLREVELYPFQKAIDAGADMVMTAHVQFPAFDDTTYKSKLDGSDILVPATLSKKVMTGLLRQEMGFNGVIVTDALNMKAIADHFGQEEAVVMAVKAGVDIALMPASVTSLKEEQKFARVIQALKEAVKNGDIPEQQINNSVERIISLKIKRGMYPARNSDSTKEKIAKAKKIVGSKQHLKAEKKLAEKAVTVLKNEQHTLPFKPKKGSRILIVAPYEEQTASIEQTIHDLIKRKKIKPVSLSKMNFASQVFKTEHEKQVKEADYIITGSYVVKNDPVVNDGVIDDTISDSSKWATVFPRAVMKAALQHNKPFVLMSLRNPYDAANFEEAKALIAVYGFKGYANGRYLQPNIPAGVMAIFGQAKPKGTLPVDIPSVTKPGNTLYPLGYGLNIKTGRPL,soluble
3,MRQHKTKYLHQYELQALLNELNLNNEVNWDYFILLIAKTGIRFAEALGVTPDDFDFAHQTLSISKTWDYKSNKSDFAPTKNNSSVRKVPLDWQTVIQFSQLTKKLPEDQPIFVQAKVYNDTVNHYLERLCKHASIPVISVHGLRHTHASLLLYAGVSIASVARRLGHSNMTTTQQTYLHIIQELENQDNDKVMKHLASLILEHHHHHH,soluble
4,MRQIKVVLIGGGTGLSVMARGLREFPIDITAIVTVADNGGSTGKIRDEMDIPAPGDIRNVIAALSDSESVLSQLFQYRFEENQISGHSLGNLLIAGMTNITNDFGHAIKALSKILNIKGRVIPSTNTSVQLNAVMEDGEIVFGETNIPKKHKKIDRVFLEPNDVQPMEEAIDALREADLIVLGPGSLYTSVISNLCVNGISDALIHSDAPKLYVSNVMTQPGETDGYSVKDHIDAIHRQAGQPFIDYVICSTQTFNAQVLKKYEEKHSKPVEVNKAELEKESINVKTSSNLVEISENHLVRHNTKVLSTMIYDIALELISTIPFVPSDKRK,not soluble
5,MRRAFITGVFFLSEVEFSHEYWMRHALTLAKRAWDEREVPVGAVLVHNNRVIGEGWNRPIGRHDPTAHAEIMALRQGGLVMQNYRLIDATLYVTLEPCVMCAGAMIHSRIGRVVFGARDAKTGAAGSLMDVLHHPGMNHRVEITEGILADECAALLSDFFRMRRQEIKAQKKAQSSTD,soluble
6,MRREILVAAAILLDSRGRVLLVGNDWGRRGRVRYTLPGGTVEPGETAVEALVREVREETGLRVRSVEHLAYVIQVEDRRKNERTLAMAFRATYEGLLNPRDPDGHIVEARFFTLEEVEERLKGHLPLLEPLRAYLRGERGRFYAYAGWHAPGVVV,soluble
7,MRRGPARAAALHRAFSLHGKIAAMQRPASSSLPPLDPAASAHSASVARHLRAAIAAAGGWLPFSQWMSAALYAPGLGYYTAGATKLASPADAQGPALPAGDFVTAPELTPLFAATVARQIAQVLRATDTASVLEFGAGTGALAEGVLRALAGLDCPARYLIVEVSADLRQRQQSRLAPFGDRVQWLDQLPDAFAGCVLGNEVLDAMPATLFRWSETGVVQERGVTVDANGEFAWQDRDADAPLAQAVAQRMPPLPGYVSEINLQAEAWVRSMGLWLQRGAALLLDYGFPRSEYYHPQRAGGTLMCHLRHHAHADPFAAPGLQDITSHVDFTAMADAALAGGLQVLGYLSQARFLVNAGLLDALSQLDPADARAYAQAVAPVQKLLSEAEMGELFKVLAVGRDMPEPLLGFARGDRRGTL,not soluble
8,MRRGSGNPERPSLSRDGLRVPPPCPGKRGPGHFSGYHGGMEGIRRAAQRAAEEFLQAFPMAPGSLFVLGGSTSEVLGERVGTRPSLEAAHAVLEGLLPPLLERGVHVAVQACEHLNRALVVERETARAFGLEEVAVFPHPKAGGALATAAFLRFRDPVMVESLKAQAHGGMDIGGVLIGMHLRPVAVPLRLSVRKIGEAVLLAAKTRPKLVGGARAVYTREEMLKKLEEFLPKPP,soluble
9,MRRVTTLLVMMLTVLSACQASPKASPTKPGNAMSNNHPQNPYYSRTDTTRLDLPNEVWKKVLSPELYAVARLAETERAFTGKYWNYEGLGTYYCAACGNTLFRSDAKFASTCGWPSFFETVRPGSVAYREDTSFGMVRTEVLCGRCGAHLGHVFDDGPPPTGKRFCMNSICLDFEPDQPETAKPQ,soluble
10,MRSDVIKKGLERVPHRSLLKALGITDDEMRRPFIGIVSSWNEIIPGHVHLDKVVEAVKAGVRMAGGVPFVFPTIGICDGIAMDHRGMKFSLPSRELIADSIEIVASGFPFDGLVFVPNCDKITPGMMMAMGRLNIPSVLISGGPMLAGRYNGRDIDLITVFEAVGGYKVGKVDEETLKAIEDLACPGAGSCAGLFTANTMNSLAEALGIAPRGNGTVPAVHAKRLRMAKEAGMLVVELVKRDVKPRDIVTLDSFMNAVMVDLATGGSTNTVLHLKAIAESFGIDFDIKLFDELSRKIPHICNISPVGPYHIQDLDDAGGIYAVMKRLQENGLLKEDVMTIYLRKIGDLVREAKILNEDVIRPFDNPYHKEGGLGILFGNLAPEGAVAKLSGVPEKMMHHVGPAVVFEDGEEATKAILSGKIKKGDVVVIRYEGPKGGPGMREMLSPTSAIVGMGLAEDVALITDGRFSGGSHGAVIGHVSPEAAEGGPIGIVKDGDLIEIDFEKRTLNLLISDEEFERRMKEFTPLVKEVDSDYLRRYAFFVQSASKGAIFRKPAAALEHHHHHH,soluble
11,MRSIFLLHFDYKTCEEEDFEDWNLADGKCLNGAKYMYKRRKQDARCLVKRTFKDMILHEIPCDSCTESDYECSSEFVRDAKGDCIPDYDQIALSDICDKANGETVSLEPLQLIKGDKCKKPMEIEAMNIPCEKILRESSNGKKIATIENKFDFEI,not soluble
12,MRTAEFWIGRLGLERHPEGGWYRETYRSEGSYGFNGNSPFGSPRSYATSIFYLLEHGDRSRLHRIRSDEQWYFHAGSPLDVHCFPETGDPSLFTLGDDPNAGQVLHSWVSAGHWFGASLSEQADAPGTYALVSCVVAPGFDFRDLTFADPAALTAQFPAHAQIIEKLSLEHHHHHH,soluble
13,MRTITFNELRKIKDSLPSGSMHRIADELGLHVDTVRNFFGGHNFKEGKSVGIHLEPGPDGGLVMLDDTTVLDRALKILDEINMSMQKEQATEPMQI,not soluble
14,MRTRLLAILLAVWPAACATAEPACRDLTFEDTRYSLCEAQAGDDIRIFQTAPDGRPYGSFERINSALEGEGRQLAFAMNAGMYHADRRPVGLLIEEEVERAPLVTSAGPGNFGLLPNGVFCVGDGFRVIESRAFAAERPTCRHASQSGPMLVIGGELHPRFLVDSDSRYIRNGVGVSADGRRAVFAISNRPVTFHEFGRLFRDELGLPEALYFDGSISRLYDRGARRSDWGTPMGPIVGLVVPKPLEHHHHHH,not soluble
15,MRTRSGSAEFSGPLRSVAILAQEKLGDCVLLTPLVRNLRQAFPDLEIHLITFSRASANFFMNDPQVTAVHLVKKQPRRYFREVLSRKFDLLFNTKDHPSTWFLLQSALIRARFKVGHNNPFHEGLYDRLLDTEFHAHMAVKNCALLPLLGVTADTEACRPSLEHHHHHH,soluble
16,MRVAVDAMGGDNAPAVEVEGAVVAAREFGIPITLVGDTEKLRLELAKHNVQGLDIAIHHASEVVGMHDAASDAVRRKKDSSIRVAFDLVKSGEAEAVVSAGNSGATMAAGMFVLKRLKGIDRPAIAQIFPTLRGKTLVLDVGGNVDCKPIHLVQFAIMGEVYARHVIGVEQPRIGLLSNGEEDSKGNELTRETNAILKNISFDYEGYVEGRDIFNGMVDVVVCDGFVGNVVLKLSEGLAETVGKMLREEIASSLLSKLGYLFVRKAFKNFKKKVDYAEYGGAPLIGINGVAMICHGGSNVKAIKNAIHFAHEYVRKGVNQRLAEKMETEFTAYMQQFDAVKEAVAG,not soluble
17,MRVDAIAKVTGRARYTDDYVMAGMCYAKYVRSPIAHGYAVSINDEQARSLPGVLAIFTWEDVPDIPFATAGHAWTLDENKRDTADRALLTRHVRHHGDAVAIVVARDELTAEKAAQLVSIEWQELPVITTPEAALAEDAAPIHNGGNLLKQSTMSTGNVQQTIDAADYQVQGHYQTPVIQHCHMESVTSLAWMEDDSRITIVSSTQIPHIVRRVVGQALDIPWSCVRVIKPFVGGGFGNKQDVLEEPMAAFLTSKLGGIPVKVSLSREECFLATRTRHAFTIDGQMGVNRDGTLKGYSLDVLSNTGAYASHGHSIASAGGNKVAYLYPRCAYAYSSKTCYTNLPSAGAMRGYGAPQVVFAVESMLDDAATALGIDPVEIRLRNAAREGDANPLTGKRIYSAGLPECLEKGRKIFEWEKRRAECQNQQGNLRRGVGVACFSYTSNTWPVGVEIAGARLLMNQDGTINVQSGATEIGQGADTVFSQMVAETVGVPVSDVRVISTQDTDVTPFDPGAFASRQSYVAAPALRSAALLLKEKIIAHAAVMLHQSAMNLTLIKGHIVLVERPEEPLMSLKDLAMDAFYHPERGGQLSAESSIKTTTNPPAFGCTFVDLTVDIALCKVTINRILNVHDSGHILNPLLAEGQVHGGMGMGIGWALFEEMIIDAKSGVVRNPNLLDYKMPTMPDLPQLESAFVEINEPQSAYGHKSLGEPPIIPVAAAIRNAVKMATGVAINTLPLTPKRLYEEFHLAGLI,soluble
18,MRVDVVSRDIIKPSSPTPNHLKKFKLSLLEQLGPTIFGPMVFFYSANNSIKPTEQLQMLKKSLSETLTHFYPLAGRLKGNISIDCNDSGADFLEARVNSPLSNLLLEPSSDSLQQLIPTSVDSIETRTRLLLAQASFFECGSMSIGVCISHKLADATSIGLFMKSWAAISSRGSIKTIGAPVFDTVKIFPPGNFSETSPAPVVEPEIMMNQTLSKRFIFDSSSIQALQAKASSFEVNQPTRVEAVSALIWKSAMKATRTVSGTSKPSILANSVSLRSRVSPPFTKNSIGNLVSYFAAKAEEGINQTKLQTLVSKIRKAKQRFRDIHIPKLVGNPNATEIICSYQKEAGDMIASGDFDFYIFSSACRFGLYETDFGWGKPVWVGFPSVRQKNIVTLLDTKEAGGIEAWVNLNEQEMNLFEQDRELLQFASLNPSVIQPFLHVL,soluble
19,MRVGLVHGFLSRRYLDFWRAYLEALGVEVVEAAPPPSDLPFCLPVQRLLAQVEALKEAGVDYLLLPDLQGGVESERGGGQCPWLLDLEAALLRYFPGLPPVLKVPAELSERVLGRAGEVGQLLVRNPMLVGRALDRTRRLLKPPPPLPTPQGSVGVVAQPYLLEEPAFRREVEAALRAHGLEAYFPDLPPERLREEADRLLPVDLPTDRELVGAIHYLGRLGRVKGLALVVSYACPPIPGLMRKAARRLGKPYRLLTLGEDWQEPLAALKAEMEKGNRGG,soluble
20,MRVLILGGTGNAAELAARVATIQGVDAITSLAGRTREPSVPLGDLRVGGFGGVAGLASYLQAMQIDLLIDATHPFASQISFNAADAAKEVGVPRLMLIRPPWEKGSGDRWMEVDNVEAAAASLQNQAHRVFLTVGRQELAAFAHLEEIWFLMRMIDPPVDDALVPPGMVLCDRGPFNLNNERQILIDRKIDTIVSKNSGGDATKPKIIAARELGVKVVMVNRPAIPPGEQVSDVEGALVWLLEKLHN,not soluble
